Source: patent US7144731B2, “SCF antibody compositions and methods of using the same” (Amgen Inc., priority 1989, dated 2006)

Tested on: human bone marrow
Test: Human bone marrow colony assay
Format: cell-based
In short: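 Ficoll-purified normal human marrow cells were cultured 14 days under low oxygen (7% O2, 10% CO2) in methylcellulose medium containing EPO (20 U/ml). Colonies counted were only those 0.2 mm or larger. Test material was recombinant human SCF (residues 1–162) from COS-1 supernatants, also combined with other factors.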

B1: rrSCF^1-164: recombinant rat SCF^1-164 from E. coli, also used ^125I-labelled (protein)
chain: QEICRNPVTDNVKDITKLVANLPNDYMITLNYVAGMDVLPSHCWLRDMVTHLSVSLTTLLDKFSNISEGLSNYSIIDKLGKIVDDLVACMEENAPKNVKESLKKPETRNFTPEEFFSIFNRSIDAFKDFMVASDTSDCVLSSTLGPEKDSRVSVTKPFMLPPVA
specific activity in proliferation of human bone marrow: specific activity similar to that of human SCF^1-164
